Test [1] addresses T1, His-tagged HM1.24 antigen, residues N49-A163 of the extracellular domain (human, UniProt Q10589 49-163).
T1 sequence: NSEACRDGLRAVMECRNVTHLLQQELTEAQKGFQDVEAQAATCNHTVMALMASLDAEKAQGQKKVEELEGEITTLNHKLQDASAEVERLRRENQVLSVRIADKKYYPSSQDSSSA

Test [2] concerns the target T2, Human HM1.24 on RPMI 8226 multiple myeloma cells (human, UniProt Q10589 1-161). Description: flow cytometry on HM1.24+ RPMI 8226 cells.
Test [3] has as its target T2, Human HM1.24 on RPMI 8226 multiple …. Kind of test: flow cytometry on RPMI 8226 multiple myeloma cells, R-PE anti-human IgG F. For orientation: In flow cytometry, cells or beads pass a laser one at a time.

T2 sequence (Q10589 1-161 limits assumed): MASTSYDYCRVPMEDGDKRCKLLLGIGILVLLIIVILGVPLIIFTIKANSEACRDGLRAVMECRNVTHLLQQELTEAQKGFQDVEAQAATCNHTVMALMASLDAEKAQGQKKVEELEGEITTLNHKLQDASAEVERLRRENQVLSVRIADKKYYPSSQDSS

B1: HM1.24_H1.1 heavy chain variant with HM1.24_L4 light chain (antibody, human IgG1, kappa, V domains shown)
VH: QVQLVQSGAEVKKPGASVKVSCKASGYTFTPYWMQWVRQAPGQGLEWMGSIFPGEGDTRYSQSFQGQVTISADKSISTAYMELSRLRSDDTAVYYCARGLRRGGYYFDYWGQGTLVTVSS
VL: DIVMTQSPLSLPVTLGQPASISCKASQDVNTAVAWYLQKPGKSPKLLIYSASNRYTGVPDRITGSGSGTDFTLKISRVEAEDVGVYYCQQHYSTPFTFGSGTKLEIKR
On to B1, for which, in test [1], the binding result is “binds”.

B2: HM1.24_H1L2 (antibody, human IgG1, kappa, V domains shown)
VH: QVQLVQSGAEVKKPGASVKVSCKASGYTFTPYWMQWVRQAPGQGLEWMGSIFPGDGDTRYSQSFQGQVTISADKSISTAYMELSRLRSDDTAVYYCARGLRRGGYYFDYWGQGTLVTVSS
VL: DIVMTQSPSSLSASVGDRVTITCQASQDVNTAVAWYQQKPDQSPKLLIYSASNRYTGVPDRITGSGSGTDFTLTISSLQAEDVAVYYCQQHYSTPFTFGSGTKLEIKR
As to B2, the binding result in test [2] was “binds”.

B3: HM1.24_H2.1 heavy chain variant with HM1.24_L4 light chain (antibody, human IgG1, kappa, V domains shown)
VH: EVQLVESGGGLVKPGGSLRLSCAASGYTFTPYWMQWVRQAPGKGLEWMGSIFPGEGDTRYSQSFQGQVTISADKSISTAYMELSSLRSEDTAVYYCARGLRRGGYYFDYWGQGTLVTVSS
VL: DIVMTQSPLSLPVTLGQPASISCKASQDVNTAVAWYLQKPGKSPKLLIYSASNRYTGVPDRITGSGSGTDFTLKISRVEAEDVGVYYCQQHYSTPFTFGSGTKLEIKR
Consider B3, for which the binding result in test [1] is given as “binds”.

B4: HM1.24_H2.3 heavy chain variant with HM1.24_L4 light chain (antibody, human IgG1, kappa, V domains shown)
VH: EVQLVESGGGLVKPGGSLRLSCAASGYTFTPYWMQWVRQAPGKGLEWMGSIFPGDSDTRYSQSFQGQVTISADKSISTAYMELSSLRSEDTAVYYCARGLRRGGYYFDYWGQGTLVTVSS
VL: DIVMTQSPLSLPVTLGQPASISCKASQDVNTAVAWYLQKPGKSPKLLIYSASNRYTGVPDRITGSGSGTDFTLKISRVEAEDVGVYYCQQHYSTPFTFGSGTKLEIKR
In the case of B4, the binding result in test [1] was “binds”.

B5: HM1.24_H1.4 heavy chain variant with HM1.24_L4 light chain (antibody, human IgG1, kappa, V domains shown)
VH: QVQLVQSGAEVKKPGASVKVSCKASGYTFTPYWMQWVRQAPGQGLEWMGSIFPGDADTRYSQSFQGQVTISADKSISTAYMELSRLRSDDTAVYYCARGLRRGGYYFDYWGQGTLVTVSS
VL: DIVMTQSPLSLPVTLGQPASISCKASQDVNTAVAWYLQKPGKSPKLLIYSASNRYTGVPDRITGSGSGTDFTLKISRVEAEDVGVYYCQQHYSTPFTFGSGTKLEIKR
B5: the binding result in test [1] was “binds”.

B6: HM1.24_H1.2 heavy chain variant with HM1.24_L4 light chain (antibody, human IgG1, kappa, V domains shown)
VH: QVQLVQSGAEVKKPGASVKVSCKASGYTFTPYWMQWVRQAPGQGLEWMGSIFPGSGDTRYSQSFQGQVTISADKSISTAYMELSRLRSDDTAVYYCARGLRRGGYYFDYWGQGTLVTVSS
VL: DIVMTQSPLSLPVTLGQPASISCKASQDVNTAVAWYLQKPGKSPKLLIYSASNRYTGVPDRITGSGSGTDFTLKISRVEAEDVGVYYCQQHYSTPFTFGSGTKLEIKR
As for B6, the binding result in test [1] was “binds”.

B7: HM1.24_H1.3 heavy chain variant with HM1.24_L4 light chain (antibody, human IgG1, kappa, V domains shown)
VH: QVQLVQSGAEVKKPGASVKVSCKASGYTFTPYWMQWVRQAPGQGLEWMGSIFPGDSDTRYSQSFQGQVTISADKSISTAYMELSRLRSDDTAVYYCARGLRRGGYYFDYWGQGTLVTVSS
VL: DIVMTQSPLSLPVTLGQPASISCKASQDVNTAVAWYLQKPGKSPKLLIYSASNRYTGVPDRITGSGSGTDFTLKISRVEAEDVGVYYCQQHYSTPFTFGSGTKLEIKR
As for B7, the binding result in test [1] was “binds”.

B8: HM1.24_H2.4 heavy chain variant with HM1.24_L4 light chain (antibody, human IgG1, kappa, V domains shown)
VH: EVQLVESGGGLVKPGGSLRLSCAASGYTFTPYWMQWVRQAPGKGLEWMGSIFPGDADTRYSQSFQGQVTISADKSISTAYMELSSLRSEDTAVYYCARGLRRGGYYFDYWGQGTLVTVSS
VL: DIVMTQSPLSLPVTLGQPASISCKASQDVNTAVAWYLQKPGKSPKLLIYSASNRYTGVPDRITGSGSGTDFTLKISRVEAEDVGVYYCQQHYSTPFTFGSGTKLEIKR
For B8, in test [1], the binding result is “binds”.

B9: HM1.24_H0L0_IgG1_WT (antibody, V domains shown)
VH: QVQLQQSGAELARPGASVKLSCKASGYTFTPYWMQWVKQRPGQGLEWIGSIFPGDGDTRYSQKFKGKATLTADKSSSTAYMQLSILAFEDSAVYYCARGLRRGGYYFDYWGQGTTLTVSS
VL: DIVMTQSHKFMSTSVGDRVSITCKASQDVNTAVAWYQQKPGQSPKLLIYSASNRYTGVPDRITGSGSGTDFTFTISSVQAEDLALYYCQQHYSTPFTFGSGTKLEIKR
In the case of B9, the binding result in test [3] is recorded as “binds”.

B10: HM1.24_H0L0 (parent antibody in the flow cytometry screen of Example 3) (antibody, V domains shown)
VH: QVQLQQSGAELARPGASVKLSCKASGYTFTPYWMQWVKQRPGQGLEWIGSIFPGDGDTRYSQKFKGKATLTADKSSSTAYMQLSILAFEDSAVYYCARGLRRGGYYFDYWGQGTTLTVSS
VL: DIVMTQSHKFMSTSVGDRVSITCKASQDVNTAVAWYQQKPGQSPKLLIYSASNRYTGVPDRITGSGSGTDFTFTISSVQAEDLALYYCQQHYSTPFTFGSGTKLEIK
Regarding B10, in test [2], the binding result was “binds”.

B11: HM1.24_H2L2 (antibody, human IgG1, kappa, V domains shown)
VH: EVQLVESGGGLVKPGGSLRLSCAASGYTFTPYWMQWVRQAPGKGLEWMGSIFPGDGDTRYSQSFQGQVTISADKSISTAYMELSSLRSEDTAVYYCARGLRRGGYYFDYWGQGTLVTVSS
VL: DIVMTQSPSSLSASVGDRVTITCQASQDVNTAVAWYQQKPDQSPKLLIYSASNRYTGVPDRITGSGSGTDFTLTISSLQAEDVAVYYCQQHYSTPFTFGSGTKLEIKR
Regarding B11, the binding result in test [2] is “binds”.

The record behind these values is patent US20080219974A1 (published 2008).
